B1: Nfo (Pseudomonas putida S16) (protein)
chain: MKGYNVYANGIRQHIIHFPGTGSPLLLIPGITSPAVTWGFVAERLAKYFDVHVVDVRGRGLSESGDLDYSLDAMADDLVALAQRMEGVVVLGHSMGARIAIRAARKDSQVFSRLILVDPPVSGPGRRPYPAKWSWYAESIRLAQRGCTAMEMRSYCPTWTDEQIELRAEWLHTCQYTAVKTAFDGFHTDDIHTDLAQLTLPIQLVVAGGAEVIQPDDIAEIISLAPQTTTYVVEEAGHMIPWDNLEGFITAVSNR

Assays:
[1] = biological target: 2,5-DHP dioxygenase Hpo from Pseudomonas putida S16 (non-His6-tagged) (Pseudomonas putida S16); assay: SEC + native gel or EMSA
purified protein = substrate: O=CNC(=O)/C=C/C(=O)O; assay: purified protein; details: 20 mM sodium phosphate pH 6.7, 25 °C

Row | Molecule | stoichiometry N [1] | Km (purified protein) | kcat (purified protein)
1 | 2,5-DHP dioxygenase Hpo from Pseudomonas putida S16 (non-His6-tagged) (enzyme) | 3 |  | 
2 | B1 |  | 5.83 ± 0.46 mM | 2.4 ± 0.1 s⁻¹

— paper PMC3831237
